Source: publication PMC11202772

Biological target: eel luteotropin/chorionic gonadotropin hormone receptor (eel LH/CGR) (eel)

| EC50 of cAMP production (HTRF) in CHO-K1 cells transiently expressing eel LH/CGR; ligand 0-1500 ng/mL, 30 min, room temperature [µg/mL] | Substance |
| --- | --- |
| 0.0478 | tethered eel LH mutant (tethered rec-eel LH-M) with the eLH/CG β-subunit CTP linker between the β-subunit and the α-subunit (from UniProt P08751 135-169) (ligand) |
| 0.139 | wild-type tethered eel luteinizing hormone (tethered rec-eel LH-wt) (ligand) |
